From patent US20070014736A1, “Methods of delivering corticotroph-derived glycoprotein hormone” (priority 2005, published 2007)

Tested on: lipolysis in mice
Assay: Stimulation of lipolysis in vivo, serum glycerol and FFA
Settings: fasted mice, IP; CGH 300 μg/kg, CL 1 mg/kg
Protocol: CGH, the β3-adrenoreceptor agonist CL 316,243 (CL), and saline vehicle were examined for stimulation of lipolysis in mice following an overnight fast. […] Lipolysis was assessed as the percent change in serum glycerol or FFA over the 2 hour period. The serum glycerol and FFA for the vehicle groups decreased by 7%±9% and 24%±15%, respectively. The serum glycerol for the CGH group increased by 57%±20%; p=0.0254, and the FFA levels increased 25%±5%; p=0.0188.
C57 BL/6 male mice, age 19 weeks, were grouped to normalize weight (n=4 for each treatment; average group weight=37.8 g±0.4 g). Mice were housed individually for 18 hours prior to treatment, at which time food was withdrawn, with free access to water given. At approximately 8 a.m., the subjects were anesthetized with halothane and blood samples taken by retro-orbital eye bleed. The blood was allowed to clot, and the serum was separated by centrifugation and frozen for later analysis. Test substances were administered by IP injection in a volume of 0.1 ml, and the animals replaced in their cages for 2 hours with free access to water. At 2 hours, the mice were sacrificed and blood drawn by cardiac puncture.
For measuring free fatty acids in serum, the method previously described for measuring free fatty acids in conditioned media was followed, with the following modifications. Wako reagents A and B were reconstituted to 2× the recommended concentration. 75 μl of Wako reagent A were added to 5 μl of oleic acid standard plus 5 μl of water. 75 μl of Wako reagent A were added to 5 μl of serum plus 5 μl of methanol (to mirror the oleic acid standard conditions). The 96-well plates were incubated at 37° C. for 10 minutes. 150 μl of Wako reagent B were added to each well. The 96-well plates were incubated at 37° C. for 10 minutes. The 96-well plates were allowed to sit at room temperature for 5 minutes. The 96-well plates were centrifuged in a Beckman Coulter Allegra 6R centrifuge at 3250×g for 5 minutes to remove air bubbles. The absorbance at 530 nm was measured on the Wallac Victor2 Multilabel counter.
For measuring glycerol in serum, the method previously described for measuring glycerol in conditioned media was followed, with the modifications described below.
Sigma reagent A was reconstituted to 0.5× the recommended concentration. 200 μl of Sigma reagent A were added to 10 μl of glycerol standard. 200 μl of Sigma reagent A were added to 5 μl of serum plus 5 μI of water. The 96-well plates were incubated for 15 minutes at room temperature. The 96-well plates were centrifuged in a Beckman Coulter Allegra 6R centrifuge at 3250×g for 5 minutes to remove air bubbles. The absorbance at 530 nm was measured on the Wallac Victor2 Multilabel counter.

B1: CGH: heterodimeric protein hormone comprised of alpha subunit GPHA2 and beta subunit GPHB5, recombinantly produced in CHO cells (protein)
chain 1: QEAVIPGCHLHPFNVTVRSDRQGTCQGSHVAQACVGHCESSAFPSRYSVLVASGYRHNITSVSQCCTISGLKKVKVQLQCVGSRREELEIFTARACQCDMCRLSRY
chain 2: ASSGNLRTFVGCAVREFTFLAKKPGCRGLRITTDACWGRCETWEKPILEPPYIEAHHRVCTYNETKQVTVKLPNCAPGVDPFYTYPVAIRCDCGACSTATTECETI
percent change (increase) in serum FFA over 2 hours: 25%±5% | percent change (increase) in serum glycerol over 2 hours: 57%±20%
